Data taken from patent US20190062727A1 (University of Texas, published 2019).

Target: T1, Rlip (RALBP1, RLIP76), endogenous protein of mouse embryonic fibroblasts and mouse liver (mouse, UniProt Q62172 2-648)
T1 construct: Endogenous protein, detected with a rabbit monoclonal anti-Rlip antibody from Abcam
T1 sequence (looked up): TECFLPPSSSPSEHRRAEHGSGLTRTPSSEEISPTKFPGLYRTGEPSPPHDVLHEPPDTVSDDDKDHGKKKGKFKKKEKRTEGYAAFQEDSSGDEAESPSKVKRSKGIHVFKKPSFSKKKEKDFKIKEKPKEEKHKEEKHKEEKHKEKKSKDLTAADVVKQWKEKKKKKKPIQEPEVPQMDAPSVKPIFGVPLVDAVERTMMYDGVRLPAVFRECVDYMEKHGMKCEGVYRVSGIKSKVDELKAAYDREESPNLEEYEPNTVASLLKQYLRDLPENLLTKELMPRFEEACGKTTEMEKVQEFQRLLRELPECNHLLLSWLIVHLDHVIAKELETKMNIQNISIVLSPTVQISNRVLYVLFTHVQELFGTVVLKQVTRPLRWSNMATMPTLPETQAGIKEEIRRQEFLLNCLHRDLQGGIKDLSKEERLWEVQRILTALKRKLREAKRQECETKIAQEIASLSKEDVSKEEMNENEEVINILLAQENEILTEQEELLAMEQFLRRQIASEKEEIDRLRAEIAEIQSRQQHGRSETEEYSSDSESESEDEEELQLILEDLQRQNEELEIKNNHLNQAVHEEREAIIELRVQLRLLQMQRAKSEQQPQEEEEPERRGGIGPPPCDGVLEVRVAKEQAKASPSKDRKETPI
Assay: co-immunoprecipitation from whole-cell homogenates of wt, p53+/- and p53-/- MEFs
From the text: Binding interactions of HSF1, Rlip and p53 in wt, p53^{-/-} MEFs without or with Rlip depletion using R508 were studied by co-immunoprecipitation using protein A/G PLUS-Agarose immunoprecipitation reagent sc-2003 from Santa Cruz Biotechnology (Columbus, Ohio) according to the manufacture's protocol using whole-cell homogenates of wild-type, p53^{-/-} or p53^{+/-} MEFs. Primary anti-HSF1 rabbit monoclonal antibody (D3L8I) and anti-p53 mouse monoclonal antibody was from Cell Signaling Technology (Danvers, Mass.), and rabbit monoclonal anti-Rlip antibody was from Abcam (Cambridge, Mass.). The specificity of primary antibodies was tested using MEFs from either p53^{-/-} or Rlip^{-/-} MEFs. The corresponding probes of anti-rabbit PLUS and anti-mouse MINUS were provided in the kit and used per the manufacturer's instructions. wt, p53^{-/-} and […]. […] Slides were visualized by fluorescence microscopy using an Olympus BX50 microscope, and photomicrographs were taken using a 40× objective.
The 4-hydroxynonenal (4HNE) and8-OH-deoxyguanosine (8OHdG) levels were measured in liver homogenate using Oxiselect kits from Cell Biolabs, San Diego, Calif. by procedures described in Methods and the results are shown in FIG. 2A and FIG. 2B, respectively. […]

B1: p53 (TP53), endogenous protein of mouse embryonic fibroblasts and mouse liver (other, UniProt P02340 1-390, looked up)
chain: MTAMEESQSDISLELPLSQETFSGLWKLLPPEDILPSPHCMDDLLLPQDVEEFFEGPSEALRVSGAPAAQDPVTETPGPVAPAPATPWPLSSFVPSQKTYQGNYGFHLGFLQSGTAKSVMCTYSPPLNKLFCQLAKTCPVQLWVSATPPAGSRVRAMAIYKKSQHMTEVVRRCPHHERCSDGDGLAPPQHLIRVEGNLYPEYLEDRQTFRHSVVVPYEPPEAGSEYTTIHYKYMCNSSCMGGMNRRPILTIITLEDSSGNLLGRDSFEVRVCACPGRDRRTEEENFRKKEVLCPELPPGSAKRALPTCTSASPPQKKKPLDGEYFTLKIRGRKRFEMFRELNEALELKDAHATEESGDSRAHSSYLKTKKGQSTSRHKKTMVKKVGPDSD
notes: Endogenous protein, detected with a mouse monoclonal anti-p53 antibody from Cell Signaling Technology
B1: binds.
